{
  "source": "patent US20220411529A1",
  "about": "(Genmab, published 2022)",
  "binders": {"B1": {"name": "IgG4-CAMPATH-1H-E345R-K439E (antibody)", "heavy": "QVQLQESGPGLVRPSQTLSLTCTVSGFTFTDFYMNWVRQPPGRGLEWIGFIRDKAKGYTTEYNPSVKGRVTMLVDTSKNQFSLRLSSVTAADTAVYYCAREGHTAAPFDYWGQGSLVTVSSASTKGPSVFPLAPCSRSTSESTAALGCLVKDYFPEPVTVSWNSGALTSGVHTFPAVLQSSGLYSLSSVVTVPSSSLGTKTYTCNVDHKPSNTKVDKRVESKYGPPCPSCPAPEFLGGPSVFLFPPKPKDTLMISRTPEVTCVVVDVSQEDPEVQFNWYVDGVEVHNAKTKPREEQFNSTYRVVSVLTVLHQDWLNGKEYKCKVSNKGLPSSIEKTISKAKGQPRRPQVYTLPPSQEEMTKNQVSLTCLVKGFYPSDIAVEWESNGQPENNYKTTPPVLDSDGSFFLYSRLTVDKSRWQEGNVFSCSVMHEALHNHYTQESLSLSLGK", "light": "not shown"}, "B2": {"name": "IgG4-CAMPATH-1H-E345R-K439E-N297A (antibody)", "heavy": "B1 heavy with N298A", "light": "not shown"}, "B3": {"name": "IgG4-11B8-E345R-S440K (antibody)", "heavy": "EVQLVQSGGGLVHPGGSLRLSCTGSGFTFSYHAMHWVRQAPGKGLEWVSIIGTGGVTYYADSVKGRFTISRDNVKNSLYLQMNSLRAEDMAVYYCARDYYGAGSFYDGLYGMDVWGQGTTVTVSSASTKGPSVFPLAPCSRSTSESTAALGCLVKDYFPEPVTVSWNSGALTSGVHTFPAVLQSSGLYSLSSVVTVPSSSLGTKTYTCNVDHKPSNTKVDKRVESKYGPPCPSCPAPEFLGGPSVFLFPPKPKDTLMISRTPEVTCVVVDVSQEDPEVQFNWYVDGVEVHNAKTKPREEQFNSTYRVVSVLTVLHQDWLNGKEYKCKVSNKGLPSSIEKTISKAKGQPRRPQVYTLPPSQEEMTKNQVSLTCLVKGFYPSDIAVEWESNGQPENNYKTTPPVLDSDGSFFLYSRLTVDKSRWQEGNVFSCSVMHEALHNHYTQKKLSLSLGK", "light": "not shown"}, "B4": {"name": "IgG4-11B8-E345R-S440K-N297A (antibody)", "heavy": "B3 heavy with N302A", "light": "not shown"}, "B5": {"name": "IgG2-11B8-E345R-S440K (antibody)", "heavy": "EVQLVQSGGGLVHPGGSLRLSCTGSGFTFSYHAMHWVRQAPGKGLEWVSIIGTGGVTYYADSVKGRFTISRDNVKNSLYLQMNSLRAEDMAVYYCARDYYGAGSFYDGLYGMDVWGQGTTVTVSSASTKGPSVFPLAPCSRSTSESTAALGCLVKDYFPEPVTVSWNSGALTSGVHTFPAVLQSSGLYSLSSVVTVPSSNFGTQTYTCNVDHKPSNTKVDKTVERKCCVECPPCPAPPVAGPSVFLFPPKPKDTLMISRTPEVTCVVVDVSHEDPEVQFNWYVDGVEVHNAKTKPREEQFNSTFRVVSVLTVVHQDWLNGKEYKCKVSNKGLPAPIEKTISKTKGQPRRPQVYTLPPSREEMTKNQVSLTCLVKGFYPSDIAVEWESNGQPENNYKTTPPMLDSDGSFFLYSKLTVDKSRWQQGNVFSCSVMHEALHNHYTQKKLSLSPGK", "light": "not shown"}, "B6": {"name": "IgG2-11B8-E345R-S440K-N297A (antibody)", "heavy": "B5 heavy with N301A", "light": "not shown"}, "B7": {"name": "IgG2-CAMPATH-1H-E345R-K439E (antibody)", "heavy": "QVQLQESGPGLVRPSQTLSLTCTVSGFTFTDFYMNWVRQPPGRGLEWIGFIRDKAKGYTTEYNPSVKGRVTMLVDTSKNQFSLRLSSVTAADTAVYYCAREGHTAAPFDYWGQGSLVTVSSASTKGPSVFPLAPCSRSTSESTAALGCLVKDYFPEPVTVSWNSGALTSGVHTFPAVLQSSGLYSLSSVVTVPSSNFGTQTYTCNVDHKPSNTKVDKTVERKCCVECPPCPAPPVAGPSVFLFPPKPKDTLMISRTPEVTCVVVDVSHEDPEVQFNWYVDGVEVHNAKTKPREEQFNSTFRVVSVLTVVHQDWLNGKEYKCKVSNKGLPAPIEKTISKTKGQPRRPQVYTLPPSREEMTKNQVSLTCLVKGFYPSDIAVEWESNGQPENNYKTTPPMLDSDGSFFLYSKLTVDKSRWQQGNVFSCSVMHEALHNHYTQESLSLSPGK", "light": "not shown"}, "B8": {"name": "IgG2-CAMPATH-1H-E345R-K439E-N297A (antibody)", "heavy": "B7 heavy with N297A", "light": "not shown"}},
  "note": "Substitutions are numbered along the chain they refer to. Names may count otherwise.",
  "data": [
    {"molecular_target": "FcγRIIIa (V158 high affinity allotype) (UniProt P08637 17-254, limits assumed)", "sequence (P08637 17-254 F176V limits assumed)": "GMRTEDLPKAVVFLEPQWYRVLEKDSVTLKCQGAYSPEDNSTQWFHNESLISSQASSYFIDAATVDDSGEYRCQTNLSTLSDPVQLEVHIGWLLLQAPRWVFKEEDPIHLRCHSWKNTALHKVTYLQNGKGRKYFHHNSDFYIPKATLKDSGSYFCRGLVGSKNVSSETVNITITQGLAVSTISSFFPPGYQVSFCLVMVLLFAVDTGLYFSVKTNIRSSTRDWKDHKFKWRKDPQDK", "test": "cell-based or functional assay", "values": [
      {"binder": "B1", "FcγRIIIa activation, reporter cell assay, relative AUC, single agent": "< 5 % of the level induced by the positive control mixture"},
      {"binder": "B2", "FcγRIIIa activation, reporter cell assay, relative AUC, single agent": "< 5 % of the level induced by the positive control mixture"},
      {"binder": "B3", "FcγRIIIa activation, reporter cell assay, relative AUC, single agent": "< 5 % of the level induced by the positive control mixture"},
      {"binder": "B4", "FcγRIIIa activation, reporter cell assay, relative AUC, single agent": "< 5 % of the level induced by the positive control mixture"},
      {"binder": "B5", "FcγRIIIa activation, reporter cell assay, relative AUC, single agent": "< 5 % of the level induced by the positive control mixture"},
      {"binder": "B6", "FcγRIIIa activation, reporter cell assay, relative AUC, single agent": "< 5 % of the level induced by the positive control mixture"},
      {"binder": "B7", "FcγRIIIa activation, reporter cell assay, relative AUC, single agent": "< 5 % of the level induced by the positive control mixture"},
      {"binder": "B8", "FcγRIIIa activation, reporter cell assay, relative AUC, single agent": "< 5 % of the level induced by the positive control mixture"}
    ]}
  ]
}
